Assay results reported in paper PMC7774954 (2020).
Where no end group is shown, it is not given here. The star is where a group is joined. Biotin = O=C1N[C@H]2[C@H](CS[C@H]2CCCCC(=O)*)N1; TTDS = NCCCOCCOCCOCCCNC(=O)CCC(=O)*

T1: MAST2-1 (human)
T1 chain: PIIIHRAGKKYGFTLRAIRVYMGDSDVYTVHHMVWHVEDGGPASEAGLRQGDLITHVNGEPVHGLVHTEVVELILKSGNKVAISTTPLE


Experiments:
MAST2-1 [1] = target: T1, MAST2-1; test: FP; competitive FP with fRSK1 tracer
HTRA1-1 [2] = target: HTRA1-1 (human); test: FP; competitive FP with fRSK1 tracer
Sequence of HTRA1-1 (human) (chain, as listed by the source): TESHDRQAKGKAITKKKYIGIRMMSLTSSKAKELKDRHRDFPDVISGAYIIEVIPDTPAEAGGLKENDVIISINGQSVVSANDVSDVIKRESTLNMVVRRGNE

MAST2-1 [3] = target: T1, MAST2-1; test: FP
HTRA1-1 [4] = target: HTRA1-1 (human); test: FP

| Binder | Kd (MAST2-1 [1]) [µM] | Kd (HTRA1-1 [2]) [µM] | Kd (MAST2-1 [3]) [µM] | Kd (HTRA1-1 [4]) [µM] |
| --- | --- | --- | --- | --- |
| {Biotin-TTDS}-DEDQHTQITKV [PTEN_11] | 3.14 | 45.1 |  |  |
| Fluorescein-KLPSTTL [fRSK1] |  |  | 6.87 | 64.8 |
